How the values were obtained:
[1] = molecular target: T1, cynomolgus monkey CD8A on primary cynomolgus monkey CD8+ T cells (cynomolgus monkey, UniProt P01732 23-235 (human entry)); assay: flow cytometry, cyno CD8+ T cells, 0.2 uM FN3
T1 construct: also called Cyno CD8alpha
Experimental: (§1) Binding of the 190 ELISA hits to human and cynomologous monkey primary CD8 T cells was assessed by flow cytometry. The FN3 domain molecules were diluted to 2 μM and 0.2 μM in PBS and incubated with human or cynomologous monkey CD8+ T cells in 96-well format. After 1 hour at 4 C, the cells were washed once with PBS and then resuspended with an anti-FN3 domain antibody (PAB25) solution. Following this incubation, the cells were washed twice with PBS and a PE conjugated secondary antibody and a viability dye were added. Finally, cells were washed and resuspended in PBS for flow cytometric analysis using a BD Canto Instrument. Cells were gating on live cells and median fluorescence intensity of the bound Centyrins (PE channel) was calculated using Cytobank software.

[2] = molecular target: T2, human CD8 alpha (CD8A) on primary human CD8+ T cells (human, UniProt P01732 22-235); assay: flow cytometry, human CD8+ T cells, 0.2 uM FN3
T2 construct: whole, on cells; also called hCD8A
T2 sequence (P01732 22-235): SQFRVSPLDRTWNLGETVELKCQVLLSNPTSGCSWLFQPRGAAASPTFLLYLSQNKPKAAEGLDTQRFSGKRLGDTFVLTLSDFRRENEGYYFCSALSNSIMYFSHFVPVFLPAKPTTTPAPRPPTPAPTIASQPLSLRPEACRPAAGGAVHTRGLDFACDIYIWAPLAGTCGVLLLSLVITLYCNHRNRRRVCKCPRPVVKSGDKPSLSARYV
Experimental: as §1

[3] = molecular target: T1, cynomolgus monkey CD8A on primary …; assay: flow cytometry, cyno CD8+ T cells, 2 uM FN3
Experimental: as §1

[4] = molecular target: T2, human CD8 alpha (CD8A) on primary human …; assay: flow cytometry, human CD8+ T cells, 2 uM FN3
Experimental: as §1

In house human CD8A-Fc = molecular target: T3, In house human CD8A-Fc (human, UniProt P01732 22-182, limits assumed); assay: SPR (ProteOn), captured hCD8A-Fc
T3 construct: Captured on goat anti-human Fc on a ProteOn GLC chip; also called hCD8A-Fc; recombinant human CD8 alpha; not shown: linker with flag (and polyhistidine) tag and Fc of human IgG1
T3 sequence (P01732 22-182 limits assumed): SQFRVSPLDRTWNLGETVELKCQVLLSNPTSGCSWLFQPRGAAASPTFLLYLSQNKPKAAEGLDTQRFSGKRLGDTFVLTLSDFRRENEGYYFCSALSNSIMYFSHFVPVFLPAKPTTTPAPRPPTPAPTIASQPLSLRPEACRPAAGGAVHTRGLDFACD
Experimental: Purified anti-CD8A FN3 domains were subjected to off-rate analysis using a Proteon surface plasmon resonance instrument in order to pick clones with the slowest off-rates for further characterization.
The immobilized GAH-Fc IgG densities averaged about 6000 Response Units (Ru) with less than 1% variation among different channels. In house human CD8A-Fc was captured in vertical orientation at 3 different ligand densities, 10, 5, 2.5 μg/ml for 5 minutes at 30 ul/minute flowrate. All FN3 domains were normalized to a 3 μM concentration, and tested for binding in horizontal orientation. All 6 analyte channels were used for FN3 domains to maximize the screening throughput. The dissociation phase was monitored for 15 minutes at a flow rate of 100 μl/min using PBST as running buffer. […] Data analyses were performed using Bio-Rad ProteOn Manager software (version 3.1.0.6). Raw data were double referenced by subtraction of the interspot (empty chip surface, no protein immobilized or captured) signals to correct the non-specific binding of the FN3 domain to the pre-coated GAH-Fc IgG surface, followed by a double correction using empty channel L6 where no hCD8A-Fc was captured. The processed binding data were locally fit to a 1:1 simple Langmuir binding model to extract the koff for each FN3 domain binding to captured hCD8A-Fc.

T1 sequence (P01732 other isoform, or with tags, fused parts or gaps limits assumed): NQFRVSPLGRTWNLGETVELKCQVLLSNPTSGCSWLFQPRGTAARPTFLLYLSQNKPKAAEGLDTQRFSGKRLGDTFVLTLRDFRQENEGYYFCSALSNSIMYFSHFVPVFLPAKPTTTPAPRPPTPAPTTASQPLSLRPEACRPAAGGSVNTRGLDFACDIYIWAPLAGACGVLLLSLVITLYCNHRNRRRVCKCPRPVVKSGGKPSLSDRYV

Row | Cyno T-cell Binding 0.2 uM (MFI) [1] [MFI] | Human T-cell Binding 0.2 uM (MFI) [2] [MFI] | Cyno T-cell Binding 2 uM (MFI) [3] [MFI] | Human T-cell Binding 2 uM (MFI) [4] [MFI] | koff (In house human CD8A-Fc) [s⁻¹] | Binder
1 | 1830 | 511 | 25700 | 2710 | 0.000999 | P282CR9P1358_C5 (designed binder, FN3 domain) LPAPKNLVVSRVTEDSARLSWTAPDAAFDSFLIAYPEWPDSGEAIVLTVPGSERSYDLTGLKPGTEYAVFIWGVKGGPLSHPLSAIFTT
2 | 7050 | 1060 | 55800 | 10100 | 0.00113 | P282CR9P1358_C2 (designed binder, FN3 domain) LPAPKNLVVSRVTEDSARLSWTAPDAAFDSFKIAYPEWPSNGEAIVLTVPGSERSYDLTGLKPGTEYAVFIWGVKGGAFSNPLSAIFTT
3 | 4070 | 2760 | 74100 | 28600 | 0.000311 | P282CR9P1358_D10 (designed binder, FN3 domain) LPAPKNLVVSRVTEDSARLSWTAPDAAFDSFLISYPEYPPPGEAIVLTVPGSERSYDLTGLKPGTEYFVIIFGVKGGDTSWPLSAIFTT
4 | 2820 | 2400 | 14800 | 8360 | 0.000208 | P283BR9P1363_B2 (designed binder, FN3 domain) LPAPKNLVVSRVTEDSARLSWASTVDPHPRFDSFLIQYQESEKVGEAIVLTVPGSERSYDLTGLKPGTEYTVSIYGVDVKYDIDSRPISSNPLSAIFTT
5 | 4640 | 2800 | 41500 | 12700 | 0.000304 | P282BR9P1357_G9 (designed binder, FN3 domain) LPAPKNLVVSRVTEDSARLSWPIASQIHSPFDSFLIQYQESEKVGEAIVLTVPGSERSYDLTGLKPGTEYTVSIYGVDVKYDIDSRPISSNPLSAIFTT
6 | 4100 | 2590 | 10600 | 6730 | 0.00021 | P282BR9P1357_E5 (designed binder, FN3 domain) LPAPKNLVVSRVTEDSARLSWWPRKYQRPFDSFLIQYQESEKVGEAIVLTVPGSERSYDLTGLKPGTEYTVSIYGVDIEWIGNRPIASNPLSAIFTT
7 | 3790 | 2620 | 26300 | 8970 | 7.28e-05 | P283AR9P1362_F12 (designed binder, FN3 domain) LPAPKNLVVSRVTEDSARLSWARNITSFDSFLIQYQESEKVGEAIVLTVPGSERSYDLTGLKPGTEYTVSIYGVDVKYDIDSRPISSNPLSAIFTT
8 | 6830 | 3530 | 32500 | 12700 | 0.000102 | P283AR9P1362_G11 (designed binder, FN3 domain) LPAPKNLVVSRVTEDSARLSWRKEATSFDSFLIQYQESEKVGEAIVLTVPGSERSYDLTGLKPGTEYTVSIYGVDVKYDIDSRPISSNPLSAIFTT
9 | 2470 | 2500 | 17700 | 10800 | 0.000329 | P283BR9P1363_E4 (designed binder, FN3 domain) LPAPKNLVVSRVTEDSARLSWIKSETSQPAFDSFLIQYQESEKVGEAIVLTVPGSERSYDLTGLKPGTEYTVSIYGVDVKWEGNRPVASNPLSAIFTT
10 | 6840 | 3450 | 37700 | 14500 | 0.000269 | P283BR9P1363_B6 (designed binder, FN3 domain) LPAPKNLVVSRVTEDSARLSWQRHSDAHPLFDSFLIQYQESEKVGEAIVLTVPGSERSYDLTGLKPGTEYTVSIYGVDVKWEGNRPVASNPLSAIFTT
11 | 5700 | 3030 | 27100 | 11100 | 0.000285 | P282BR9P1357_H3 (designed binder, FN3 domain) LPAPKNLVVSRVTEDSARLSWKKREYQDPGFDSFLIQYQESEKVGEAIVLTVPGSERSYDLTGLKPGTEYTVSIYGVDVKWEGNRPVASNPLSAIFTT

The next lines start with the binder.

Row | Binder | Cyno T-cell Binding 0.2 uM (MFI) [1] [MFI] | Human T-cell Binding 0.2 uM (MFI) [2] [MFI] | Cyno T-cell Binding 2 uM (MFI) [3] [MFI] | Human T-cell Binding 2 uM (MFI) [4] [MFI] | koff (In house human CD8A-Fc) [s⁻¹]
12 | P282DR9P1359_F5 (designed binder, FN3 domain) LPAPKNLVVSRVTEDSARLSWTAPDAAFDSFQIAYPEWPPPGEAIVLTVPGSERSYDLTGLKPGTEYFVIIQGVKGGVESWPLSAIFTT | 34700 | 8480 | 114000 | 48900 | 9.02e-05
13 | P283BR9P1363_A10 (designed binder, FN3 domain) LPAPKNLVVSRVTEDSARLSWQRADDILPYFDSFLIQYQESEKVGEAIVLTVPGSERSYDLTGLKPGTEYTVSIYGVDVKYDIDSRPISSNPLSAIFTT | 4100 | 2750 | 27800 | 7890 | 0.00036
14 | P282BR9P1357_B2 (designed binder, FN3 domain) LPAPKNLVVSRVTEDSARLSWNPSEDPQRFDSFLIQYQESEKVGEAIVLTVPGSERSYDLTGLKPGTEYTVSIYGVDVKWEGNRPVASNPLSAIFTT | 3840 | 2880 | 18000 | 5930 | 0.0001
15 | P282BR9P1357_C10 (designed binder, FN3 domain) LPAPKNLVVSRVTEDSARLSWWSNDNRPIFDSFLIQYQESEKVGEAIVLTVPGSERSYDLTGLKPGTEYTVSIYGVDVKWEGNRPVASNPLSAIFTT | 5110 | 2900 | 24500 | 9780 | 0.000458
16 | P282BR9P1357_A9 (designed binder, FN3 domain) LPAPKNLVVSRVTEDSARLSWKANRTTDLHFDSFLIQYQESEKVGEAIVLTVPGSERSYDLTGLKPGTEYTVSIYGVDVQYDGQQPLYSNPLSAIFTT | 1940 | 1070 | 7280 | 3120 | 0.00059
17 | P282BR9P1357_D2 (designed binder, FN3 domain) LPAPKNLVVSRVTEDSARLSWIKDGHPRHFDSFLIQYQESEKVGEAIVLTVPGSERSYDLTGLKPGTEYTVSIYGVDVVYDRGQLISSNPLSAIFTT | 2520 | 1570 | 25800 | 9610 | 0.00105
18 | P282BR9P1357_D12 (designed binder, FN3 domain) LPAPKNLVVSRVTEDSARLSWGQYITAFSFDSFLIQYQESEKVGEAIVLTVPGSERSYDLTGLKPGTEYTVSIYGVDVAWFQGKPTWSNPLSAIFTT | 7360 | 3900 | 40400 | 15300 | 8.76e-05
19 | P283BR9P1363_C8 (designed binder, FN3 domain) LPAPKNLVVSRVTEDSARLSWAKTSDLHPLFDSFLIQYQESEKVGEAIVLTVPGSERSYDLTGLKPGTEYTVSIYGVDVKWEGNRPVASNPLSAIFTT | 9080 | 3740 | 37200 | 16500 | 0.000335
20 | P282BR9P1357_C4 (designed binder, FN3 domain) LPAPNNLVVSRVTEDSARLSWPFVSQNKPHFDSFLIQYQESEKVGEAIVLTVPGSERSYDLTGLKPGTEYTVSIYGVDVKWEGNRPVASNPLSAIFTT | 7060 | 4220 | 41600 | 16800 | 0.000127
